# Laboratory results as given in patent US20250170255A1 (Daiichi Sankyo, published 2025).
# T1: biotinylated human TROP2 antigen (human, UniProt P09758 27-274, C-terminal Avi tag sequence biotinylated)
# T1 construct: extracellular domain
# T1 sequence (looked up): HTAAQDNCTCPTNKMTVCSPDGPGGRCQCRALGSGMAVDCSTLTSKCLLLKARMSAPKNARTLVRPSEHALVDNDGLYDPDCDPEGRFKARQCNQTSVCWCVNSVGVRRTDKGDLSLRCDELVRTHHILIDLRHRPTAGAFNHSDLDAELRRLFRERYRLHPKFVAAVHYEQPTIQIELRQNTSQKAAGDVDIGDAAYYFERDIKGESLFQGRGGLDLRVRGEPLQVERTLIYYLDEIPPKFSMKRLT
# T2: TROP2 on FaDu cells (human, UniProt P09758 27-323)
# T2 sequence (looked up): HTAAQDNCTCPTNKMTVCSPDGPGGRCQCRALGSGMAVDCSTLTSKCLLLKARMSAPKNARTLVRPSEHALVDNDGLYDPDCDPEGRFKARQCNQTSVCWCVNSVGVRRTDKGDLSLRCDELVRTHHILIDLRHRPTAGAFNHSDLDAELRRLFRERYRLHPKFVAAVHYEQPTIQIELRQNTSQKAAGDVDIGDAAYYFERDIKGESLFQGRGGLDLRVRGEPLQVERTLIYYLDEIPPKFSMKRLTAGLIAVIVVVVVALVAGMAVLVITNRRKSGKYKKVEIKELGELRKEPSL
# B1: MHT1001 (scFv)
# scFv: AMGYLALKHPWPGLAENSGSGGGGSVLVPMAMMASGGSDVNSQVQLVQSGAEVKKPGASVKVSCKASGYTFTTAGMQWVRQAPGQGLEWMGWINTHSGVPKYAEDFKGRVTISADTSTSTAYLQLSSLKSEDTAVYYCARSGFGSSYWYFDVWGQGTLVTVSSGGGGSGGGGSGGGGSDIQMTQSPSSLSASVGDRVTITCKASQDVSTAVAWYQQKPGKAPKLLIYSASYRYTGVPSRFSGSGSGTDFTLTISSLQPEDFAVYYCQQHYITPLTFGQGTKLEIKRGAPSGDYKDDDDKGAAAHHHHHH
# B2: MHT1808-PBD-ADC (antibody, human IgG1, kappa)
# heavy: not shown
# light: DIQMTQSPSSLSASVGDRVTITCKASQDVSTAVAWYQQKPGKAPKLLIYSASYRYTGVPSRFSGSGSGTDFTLTISSLQPEDFAVYYCQQHYITPLTFGQGTKLEIKRTVAAPSVFIFPPSDEQLKSGTASVVCLLNNFYPREAKVQWKVDNALQSGNSQESVTEQDSKDSTYSLSSTLTLSKADYEKHKVYACEVTHQGLSSPVTKSFNRGEC
# modifications: N297 glycan remodelled to azide-bearing MSG1-type glycan and conjugated to Linker 2 (PBD drug linker); average number of drugs bound 1.9
# B3: anti-TROP2 masked antibody MHT1811 (antibody)
# heavy: not shown
# light: B2 light
# notes: Full-length entries
# B4: MHT1221-PBD-ADC (antibody, human IgG1, kappa)
# heavy: not shown
# light: B2 light
# modifications: N297 glycan remodelled to azide-bearing MSG1-type glycan and conjugated to Linker 2 (PBD drug linker); average number of drugs bound 1.9
# B5: anti-TROP2 masked antibody MHT1805 (antibody)
# heavy: not shown
# light: B2 light
# notes: His cluster linker; Full-length entries
# B6: anti-TROP2 antibody HT1-11 (antibody)
# heavy: not shown
# light: B2 light
# notes: Known antibody of WO 2015/098099; Full-length entries
# B7: anti-TROP2 masked antibody MHT1804 (antibody)
# heavy: not shown
# light: B2 light
# notes: as for B5
# B8: anti-TROP2 masked antibody MHT1803 (antibody)
# heavy: not shown
# light: B2 light
# notes: as for B5
# B9: anti-TROP2 masked antibody MHT1221 (antibody)
# heavy: not shown
# light: B2 light
# notes: No His cluster; Full-length entries
# B10: anti-TROP2 masked antibody MHT1809 (antibody)
# heavy: not shown
# light: B2 light
# notes: as for B5
# B11: anti-TROP2 masked antibody MHT1806 (antibody, human IgG1, kappa)
# heavy: not shown
# light: B2 light
# B12: anti-TROP2 masked antibody MHT1810 (antibody)
# heavy: not shown
# light: B2 light
# notes: His at every other position in the linker; Full-length entries; also called HMT1810
# B13: anti-TROP2 masked antibody MHT1007 (antibody)
# heavy: not shown
# light: B2 light
# notes: IgG-type; MHT1001 mimotope peptide and MMP cleavable linker fused to the heavy chain; Full-length entries
# B14: MHT1002 (scFv)
# scFv: AMGYLALKHPWPGLAENSGSGGGGSVLVPMAMMASGGSDVNSDIQMTQSPSSLSASVGDRVTITCKASQDVSTAVAWYQQKPGKAPKLLIYSASYRYTGVPSRFSGSGSGTDFTLTISSLQPEDFAVYYCQQHYITPLTFGQGTKLEIKRGGGGSGGGGSGGGGSQVQLVQSGAEVKKPGASVKVSCKASGYTFTTAGMQWVRQAPGQGLEWMGWINTHSGVPKYAEDFKGRVTISADTSTSTAYLQLSSLKSEDTAVYYCARSGFGSSYWYFDVWGQGTLVTVSSGAPSGDYKDDDDKGAAAHHHHHH
# notes: Mimotope peptide, MMP cleavable linker, HT1-11 scFv, FLAG tag, His tag
# Tests used:
# [1] = target: T1, biotinylated human TROP2 antigen; assay: ELISA, immobilised biotinylated human TROP2 antigen, anti-FLAG-HRP detection; after MMP1 pre-treatment (mask linker cleaved)
# Procedure: (§1) NeutrAvidin (Thermo Fisher Scientific) diluted to 1 μg/ml with PBS was added at 50 μl/well to a 96-well Maxi-sorp plate (Black, Nunc) and immobilized at 4° C. overnight. The plate was washed with PBS containing 0.05% (w/v) Tween-20 (BioRad) (ELISA buffer) and then blocked with Blocker Casein (Thermo Fisher Scientific). The plate was washed with ELISA buffer, the biotinylated human TROP2 antigen (Accession Number: P09758; the extracellular domain was purified by the method known to a person skilled in the art and the C-terminal Avi tag sequence was then biotinylated) diluted to 1 μg/ml with PBS was added at 50 μl/well, and the resultant was then agitated for 30 minutes at room temperature. […] The plate was washed with ELISA buffer, the SuperSignal Pico ELISA chemiluminescent substrate (Thermo Fisher Scientific) was added, and chemiluminescence 10 minutes thereafter was then assayed using a plate reader.
# (§2) The resultant was then added to the plate comprising the human TROP2 antigen immobilized thereon at 50 μl/well. The bound scFv was detected using the HRP-labeled anti-FLAG antibody (Sigma-Aldrich) diluted to 5,000-fold with ELISA buffer.
# [2] = target: T1, biotinylated human TROP2 antigen; assay: ELISA, anti-FLAG detection, with and without MMP1
# Procedure: as §2
# The antibody was adjusted to 1 μM with the use of MMP buffer, MMP1 was added to the final concentration of 1 μM or 0 μM, and the reaction was allowed to proceed at 37° C. for 15 minutes. Thereafter, the antibody with the concentration thereof being adjusted with ELISA buffer was added to the wells.
# TROP2 on FaDu cells = target: T2, TROP2 on FaDu cells; assay: cell-based or functional assay
# [3] = target: T1, biotinylated human TROP2 antigen; assay: ELISA pH 7.5 against pH 5.5
# [4] = target: T1, biotinylated human TROP2 antigen; assay: ELISA, immobilised biotinylated human TROP2 antigen, chemiluminescence; after MMP1 pre-treatment (mask linker cleaved)
# [5] = target: T1, biotinylated human TROP2 antigen; assay: ELISA, immobilised biotinylated human TROP2 antigen, chemiluminescence; pH 5.5
# [6] = target: T1, biotinylated human TROP2 antigen; assay: ELISA, immobilised biotinylated human TROP2 antigen, chemiluminescence; pH 7.5
# [7] = target: T1, biotinylated human TROP2 antigen; assay: ELISA with and without MMP1
# [8] = target: T1, biotinylated human TROP2 antigen; assay: ELISA, immobilised biotinylated human TROP2 antigen, chemiluminescence; without MMP1
# Procedure: (§3) NeutrAvidin (Thermo Fisher Scientific) diluted to 1 μg/ml with PBS was added at 50 μl/well to a 96-well Maxi-sorp plate (Black, Nunc) and immobilized at 4° C. overnight. The plate was washed with PBS containing 0.05% (w/v) Tween-20 (BioRad) (ELISA buffer) and then blocked with Blocker Casein (Thermo Fisher Scientific). The plate was washed with ELISA buffer, the biotinylated human TROP2 antigen (Accession Number: P09758; the extracellular domain was purified by the method known to a person skilled in the art and the C-terminal Avi tag sequence was then biotinylated) diluted to 1 μg/ml with PBS was added at 50 μl/well, and the resultant was then agitated for 30 minutes at room temperature. […] The plate was washed with ELISA buffer, 50 μl of the horseradish peroxidase (HRP)-labeled anti-human IgG antibody (Jackson Immuno Research Laboratories) diluted to 2,500-fold with ELISA buffer was added, and the resultant was then agitated for 30 minutes at room temperature. The plate was washed with ELISA buffer, the SuperSignal Pico ELISA chemiluminescent substrate (Thermo Fisher Scientific) was added, and chemiluminescence 10 minutes thereafter was then assayed using a plate reader.
# [9] = target: T1, biotinylated human TROP2 antigen; assay: ELISA, immobilised biotinylated human TROP2 antigen, chemiluminescence
# Procedure: as §3
# [10] = target: T1, biotinylated human TROP2 antigen; assay: ELISA, immobilised biotinylated human TROP2 antigen, chemiluminescence; after MMP1 pre-treatment
# Procedure: as §3
# [11] = target: T1, biotinylated human TROP2 antigen; assay: ELISA, immobilised biotinylated human TROP2 antigen, chemiluminescence; pH 7.5; remark: listed apart in the source
# Procedure: (§4) The plate was washed with PBS containing 0.05% (w/v) Tween-20 (BioRad) (ELISA buffer) and then blocked with Blocker Casein (Thermo Fisher Scientific). The plate was washed with ELISA buffer, the biotinylated human TROP2 antigen (Accession Number: P09758; the extracellular domain was purified by the method known to a person skilled in the art and the C-terminal Avi tag sequence was then biotinylated) diluted to 1 μg/ml with PBS was added at 50 μl/well, and the resultant was then agitated for 30 minutes at room temperature. […] The plate was washed with ELISA buffer, 50 μl of the horseradish peroxidase (HRP)-labeled anti-human IgG antibody (Jackson Immuno Research Laboratories) diluted to 2,500-fold with ELISA buffer was added, and the resultant was then agitated for 30 minutes at room temperature. The plate was washed with ELISA buffer, the SuperSignal Pico ELISA chemiluminescent substrate (Thermo Fisher Scientific) was added, and chemiluminescence 10 minutes thereafter was then assayed using a plate reader. […]
# [12] = target: T1, biotinylated human TROP2 antigen; assay: ELISA, immobilised biotinylated human TROP2 antigen, chemiluminescence; pH 5.5; remark: listed apart in the source
# [13] = target: T1, biotinylated human TROP2 antigen; assay: ELISA, immobilised biotinylated human TROP2 antigen, chemiluminescence; pH 7.5; remark: listed apart in the source
# Procedure: as §4
# [14] = target: T1, biotinylated human TROP2 antigen; assay: ELISA, immobilised biotinylated human TROP2 antigen, chemiluminescence; pH 5.5; remark: listed apart in the source
# Procedure: as §4
# [15] = target: T1, biotinylated human TROP2 antigen; assay: ELISA, immobilised biotinylated human TROP2 antigen, chemiluminescence; pH 7.5; remark: listed apart in the source
# [16] = target: T1, biotinylated human TROP2 antigen; assay: as above; remark: listed apart in the source
# [17] = target: T1, biotinylated human TROP2 antigen; assay: ELISA, immobilised biotinylated human TROP2 antigen, chemiluminescence; pH 6.5
# [18] = target: T1, biotinylated human TROP2 antigen; assay: ELISA, immobilised biotinylated human TROP2 antigen, chemiluminescence; pH 7.5; remark: listed apart in the source
# Procedure: as §4
# [19] = target: T1, biotinylated human TROP2 antigen; assay: ELISA, immobilised biotinylated human TROP2 antigen, chemiluminescence; pH 5.5; remark: listed apart in the source
# [20] = target: T1, biotinylated human TROP2 antigen; assay: ELISA, immobilised biotinylated human TROP2 antigen, chemiluminescence; pH 7.5; remark: listed apart in the source
# [21] = target: T1, biotinylated human TROP2 antigen; assay: ELISA, immobilised biotinylated human TROP2 antigen, chemiluminescence; without MMP1; remark: listed apart in the source
# Procedure: as §3
# [22] = target: T1, biotinylated human TROP2 antigen; assay: ELISA, immobilised biotinylated human TROP2 antigen, chemiluminescence; after MMP1 pre-treatment (mask linker cleaved); remark: listed apart in the source
# Procedure: as §3
# [23] = target: T1, biotinylated human TROP2 antigen; assay: ELISA, immobilised biotinylated human TROP2 antigen, anti-FLAG-HRP detection; after MMP1 pre-treatment (mask linker cleaved); remark: listed apart in the source
# Procedure: as §1, §2
# [24] = target: T1, biotinylated human TROP2 antigen; assay: ELISA, immobilised biotinylated human TROP2 antigen, anti-FLAG-HRP detection; without MMP1
# Procedure: as §1, §2
binder,measurement,setting,value
B1,EC50 (read off the curve),[1],~8 nM
same,EC50 ratio of binding intensity (without MMP1 / with MMP1),[2],7.9
B2,"in vitro growth inhibitory activity on FaDu cells, EC50 ratio (pH 7.4/pH 5.5)",TROP2 on FaDu cells,10.7
B3,EC50 ratio (neutral pH conditions/acidic pH conditions),[3],28.1
same,EC50 (read off the curve),[4],~0.6 nM
same,EC50 (read off the curve),[5],~1 nM
same,EC50 (read off the curve),[6],~30 nM
same,EC50 ratio (without the addition of MMP1/with the addition of MMP1),[7],48.4
B4,"in vitro growth inhibitory activity on FaDu cells, EC50 ratio (pH 7.4/pH 5.5)",TROP2 on FaDu cells,1.9
B5,EC50 ratio (neutral pH conditions/acidic pH conditions),[3],2.3
B6,EC50 (read off the curve),[8],~0.5 nM
same,EC50 (read off the curve),[9],~0.6 nM
same,EC50 (read off the curve),[10],~0.5 nM
B7,EC50 ratio (neutral pH conditions/acidic pH conditions),[3],3.6
B8,EC50 (read off the curve),[11],~100 nM
same,EC50 ratio (neutral pH conditions/acidic pH conditions),[3],3.9
same,EC50 (read off the curve),[12],~30 nM
B9,EC50 ratio (neutral pH conditions/acidic pH conditions),[3],1.7
same,EC50 (read off the curve),[13],~50 nM
B10,EC50 ratio (neutral pH conditions/acidic pH conditions),[3],11.4
same,EC50 (read off the curve),[14],~5 nM
same,EC50 (read off the curve),[15],~60 nM
B11,EC50 ratio (neutral pH conditions/acidic pH conditions),[3],38.8
same,EC50 (read off the curve),[16],~200 nM
same,EC50 (read off the curve),[17],~50 nM
same,EC50 (read off the curve),[18],~200 nM
B12,EC50 ratio (neutral pH conditions/acidic pH conditions),[3],7.8
same,EC50 (read off the curve),[19],~7 nM
same,EC50 (read off the curve),[20],~60 nM
B13,EC50 (read off the curve),[21],~30 nM
same,EC50 ratio of binding intensity (without MMP1 / with MMP1),[7],104
same,EC50 (read off the curve),[22],~0.3 nM
B14,EC50 (read off the curve),[23],~3 nM
same,EC50 (read off the curve),[24],~10 nM
same,EC50 ratio of binding intensity (without MMP1 / with MMP1),[2],4.3
